Usually Kd stands for a measure of binding affinity in units of concentration. A higher Kd goes with weaker binding. Usually koff stands for the first-order rate constant of dissociation. A higher koff goes with a short-lived complex. In general, kon refers to the second-order rate constant of association. Low readings indicate slow association, high ones fast association.

Experiment [1] concerns the target T1, EGFR-his (purchased from Sino Biological) (UniProt P00533 25-645).
T1 construct: Bought protein; also called EGFR protein; not shown: his tag
Briefly: BLI (OctetRED), antibody on anti-human Fc (AHC) biosensor, EGFR-his in solution. An excerpt: (§1) BLI technology involves: detecting the interaction of the molecules fixed on the sensor with the molecules in the solution, which results in that the biofilm thickness is increased, and the interference spectrum curve is shifted along the direction of increased wavelength, wherein the phase shift of light waves can be detected by workstation in real time, and analyzed to quantitatively obtain the changes in the number of molecules on the sensor surface and related concentration and kinetic data.

The target in experiment [2] is T2, EGFRvIII-his (purchased from Sino Biological) (UniProt P00533 25-645).
T2 construct: Bought protein; also called EGFRvIII protein; not shown: his tag
Briefly: BLI (OctetRED), antibody on anti-human Fc (AHC) biosensor, EGFRvIII-his in solution.
Description: as §1

B1: Chimeric antibody c75G7C6 (antibody, human IgG1, V domains shown)
VH: EVQLQQSGPELVKPGASVKIPCKASGYTFTDYNMDWVKQSHGKSLEWIGDINPNNGDTIYNQKFKGKATLTVDKSSSTAYMELRSLTSEDTAVYYCARGDYDGYYPVYYAMDYWGQGTSVTVSS
VL: ENVLTQSPAIMSASPGEKVTMTCRASSSVSSSYLHWYQQKSGASPKLWIFSTSNLAAGVPARFSGSGSGTSYSLTVSSVEAEDAATYYCQQYSGYPLTFGAGTKLELK
notes: also called chimeric antibody 75G7
In experiment [1], B1 gave a Kd of 220 nM, a dissociation rate constant (koff) of 0.00362 s⁻¹ and a kon of 16500 M⁻¹ s⁻¹. Moreover, in experiment [2], the Kd came out at 1.45 nM, the koff amounted to 0.000132 s⁻¹ and the kon was 91400 M⁻¹ s⁻¹.

B2: Humanized antibody h75G7C6-9 (antibody, human IgG1, V domains shown)
VH: QVQLVQSGAEVKKPGASVKVSCKASGYTFTDYNMDWVRQAPGQGLEWIGDINPNNADTIYNQKFKGRVTLTVDTSTSTVYMELSSLRSEDTAVYYCARGDYDGYYPVYYAMDYWGQGTTVTVSS
VL: EIVLTQSPATLSLSPGERATLSCRASSSVSSSYLHWYQQKPGQAPRLLIYSTSNLAAGIPARFSGSGSGTDFTLTISSLEPEDFAVYYCQQYSGYPLTFGGGTKVEIK
notes: Human IgG1 constant region, human kappa constant region
For B2, in experiment [1], the Kd came out at 215 nM, the koff turned out to be 0.00435 s⁻¹ and the kon was 20200 M⁻¹ s⁻¹. In experiment [2], this molecule came in with a Kd of 1.77 nM, an off-rate (koff) of 0.000175 s⁻¹ and a kon of 98900 M⁻¹ s⁻¹.

B3: Humanized antibody h75G7C6-13 (antibody, human IgG1, V domains shown)
VH: QVQLVQSGAEVKKPGASVKVSCKASGYTFTDYNMDWVKQAPGQGLEWIGDINPNNADTIYNQKFKGRVTLTVDKSTSTVYMELSSLRSEDTAVYYCARGDYDGYYPVYYAMDYWGQGTTVTVSS
VL: EIVLTQSPATLSLSPGERATLSCRASSSVSSSYLHWYQQKPGQAPRLLIYSTSNLAAGIPARFSGSGSGTDFTLTISSLEPEDFAVYYCQQYSGYPLTFGGGTKVEIK
notes: as for B2
As to B3, in experiment [1], binding was put at a Kd of 211 nM, the koff was 0.00476 s⁻¹ and the kon was 22500 M⁻¹ s⁻¹. In experiment [2], this molecule yielded an equilibrium dissociation constant (Kd) of 1.45 nM, an off-rate constant (koff) of 0.000181 s⁻¹ and an on-rate constant (kon) of 125000 M⁻¹ s⁻¹.

Source of the values: patent US20210032351A1 (XDCEXPLORER SHANGHAI, published 2021).
